Results published in paper PMC9826837.
Like-named read-outs stand apart in the source and are kept apart here.

What was measured:
[1] = molecular target: nonphosphorylated rat cardiac troponin complex (cTn-0P), Alexa647-labelled (rat) (UniProt Q4PP99); assay: MST
[2] = molecular target: Ser22/23 bisphosphorylated rat cardiac troponin complex (cTn-2P), Alexa647-labelled (rat) (UniProt Q4PP99); assay: MST
[3] = molecular target: N-terminal lobe of cardiac troponin C (NcTnC), Alexa647-labelled; assay: MST
[4] = molecular target: nonphosphorylated rat cardiac troponin complex (cTn-0P), Alexa647-labelled (rat) (UniProt Q4PP99); assay: MST; remark: listed apart in the source
[5] = molecular target: Ser22/23 bisphosphorylated rat cardiac troponin complex (cTn-2P), Alexa647-labelled (rat) (UniProt Q4PP99); assay: MST; remark: listed apart in the source
[6] = molecular target: rat cardiac troponin T (cTnT) (rat) (UniProt P50753); assay: SEC-MALS

Row | Substance | Kd [1] | Kd [2] | Kd [3] | Kd [4] | Kd [5] | stoichiometry N [6]
1 | nonphosphorylated N-terminal fragment of rat cMyBP-C encompassing domains C0, C1, m-motif and C2 (cC0C2-0P) (domain or fragment) | 20 µM | 20 µM | 5 µM | 20 µM | 20 µM | –
2 | rat cardiac troponin C (cTnC) (from UniProt Q4PP99 1-161) (natural protein) | – | – | – | – | – | 1
